Experimental data as given in patent publication US7169567B1, “Screening assay utilizing the PTH receptor” (The General Hospital Corporation, priority 1998, dated 2007).
Blank lines part the entries; values can stand above or below the substance they belong to. Where no end group is shown, it is not given here.

How the values were obtained:
Format in all cases: cell-based
human PTH-1 receptor = biological target: T1, human PTH-1 receptor (Homo sapiens, UniProt Q03431); test: cAMP-stimulating activity in HKRK-B7 cells (LLC-PK1 stably transfected with human PTH-1 receptor), RIA; details: HKRK-B7 cells
T1 construct: expressed in transfected cells; host or cells: HKRK-B7 (LLC-PK1 stably transfected, pCDNA-1-based plasmid)
T1 sequence (Q03431 27-593): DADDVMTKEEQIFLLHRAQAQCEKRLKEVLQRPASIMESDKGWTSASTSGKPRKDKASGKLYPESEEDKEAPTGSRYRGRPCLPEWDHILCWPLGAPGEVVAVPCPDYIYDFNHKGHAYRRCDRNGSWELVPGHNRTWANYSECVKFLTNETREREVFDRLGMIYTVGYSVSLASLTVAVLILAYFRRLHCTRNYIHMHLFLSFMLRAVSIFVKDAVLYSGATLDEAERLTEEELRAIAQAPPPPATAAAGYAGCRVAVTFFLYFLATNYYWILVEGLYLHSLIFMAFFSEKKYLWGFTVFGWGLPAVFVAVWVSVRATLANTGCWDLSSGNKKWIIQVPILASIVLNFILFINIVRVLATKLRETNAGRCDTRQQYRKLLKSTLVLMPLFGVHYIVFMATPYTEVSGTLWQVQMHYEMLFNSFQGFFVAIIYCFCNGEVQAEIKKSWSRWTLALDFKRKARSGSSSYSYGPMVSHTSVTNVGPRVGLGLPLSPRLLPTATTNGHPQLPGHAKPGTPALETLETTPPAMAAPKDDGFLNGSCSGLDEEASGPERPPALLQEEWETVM
Procedure: FIG. 2. cAMP-stimulating Activity of PTH Fragments in LLC-PK1 Cells. A) Rat PTH(1–34) analog or amino-terminal rPTH fragments were tested for cAMP-stimulating activity in an LLC-P1-derived cell line (HKRK-B7) stably transfected with the human PTH-1 receptor. Cells were treated with peptide at the indicated doses for 60 min at 22° C. Intracellular cAMP was measured by RIA, as described in Experimental Procedures. Shown are combined data (mean±s.e.m.) from 3 separate experiments, each performed in duplicate. B) HKRK-B7 cells, or untransfected LLC-PK1 were treated with rPTH(1–34) or rPTH(1–14), and intracellular cAMP was measured. Shown are data (mean±s.e.m.) from a single representative experiment performed in duplicate.
FIG. 3. Alanine-scan of PTH(1–14). HKRK-B7 cells were treated with 100 mM of one of 14 different rPTH(1–14) analogs, each having a different alanine-substitution at the indicated amino acid position. The resulting cAMP levels were determined as described in Experimental Procedures. Shown are the combined data (mean±s.e.m.) from three separate experiments, each performed in duplicate. The mean (mean±s.e.m.) basal cAMP levels observed in the three experiments was 2.1±0.1 pmole/well, and the maximum response to rPTH(1–34) at 0.1 mM was 254±16 pmole/well.
Cell Culture and DNA Transfection: COS-7 and HKRK-B7 cells were cultured at 37° C. in Dulbecco's modified Eagle's medium (DMEM) supplemented with fetal bovine serum (10%); penicillin G (20 units/ml), streptomycin sulfate (20 μg/ml) and amphotericin B (0.05 μg/ml) in a humidified atmosphere containing 5% CO2. Twenty-four to 16 hours prior to assay, cells in 24-well plates were shifted to a humidified incubator containing 5% CO2 that was set at 33° C. Stock solutions of EGTA/trypsin and antibiotics were from GIBCO; fetal bovine serum was from Hyclone Laboratories (Logan, Utah). Derivation and characterization of the HKRK-B7 cell line by stable transfection of LLC-PK1 cells with a pCDNA-1-based plasmid (In Vitrogen, San Diego, Calif.) encoding the hPTH-1 receptor was described previously (Takasu, H. and Bringhurst, F., Endocrinology, in press (1998)). These cells express PTH-1 receptors at a surface density of about 1×10^6 PTH-binding sites per cell. The HKRK-B7 cells were used for functional assays 24 to 72 hours after the cell monolayer reached confluency.
(§1) Intracellular cyclic AMP: Transfected COS-7 or HKRK-B7 cells were rinsed with 500 ml of binding buffer, (50 mM Tris-HCl, pH 7.7, 100 mM NaCl, 5 mM KCl, 2 mM CaC12, 5% heat-inactivated horse serum, 0.5% heat-inactivated fetal bovine serum) and 200 ml of IBMX buffer (DMEM containing 2 mM IBMX, 1 mg/ml bovine serum albumin, 35 mM Hepes-NaOH, pH 7.4) and […] of binding buffer or binding buffer containing various amounts of peptide were added. The plates were incubated for 60 minutes at room temperature. The buffer was then withdrawn and the cells were frozen on dry ice, treated with 0.5 ml of 50 mM HCl, and refrozen. After the thawing, the lysate was diluted 30-fold in dH20 and an aliquot was analyzed for cAMP content by determined radioimmunoassay using unlabeled cAMP as a standard.
Amino-terminal peptide fragments based on the rat PTH sequence and ranging in length from PTH(1–9) to PTH(1–15) were synthesized and tested for activity in an LLC-PK1-derived cell line called HKRK-B7 which stably expresses high levels (1×10^6 receptors/cell) of the cloned human PTH-1 receptor (Takasu, H. and Bringhurst, F., Endocrinology, in press (1998)).

[1] = biological target: T2, truncated rat PTH-1 receptor (rΔNt) (Rattus norvegicus, UniProt P25961, E586G); test: cAMP response in COS-7 cells transiently transfected with truncated rat PTH-1 receptor (rΔNt); details: secretin(1–27) 1 mM
T2 construct: contains an open reading frame encoding a protein of about 435 amino acid residues; expressed in transfected cells; host or cells: COS-7, transient (DEAE-dextran), pCDNA-1 based plasmid
T2 sequence (P25961 with tags, fused parts or gaps E586G): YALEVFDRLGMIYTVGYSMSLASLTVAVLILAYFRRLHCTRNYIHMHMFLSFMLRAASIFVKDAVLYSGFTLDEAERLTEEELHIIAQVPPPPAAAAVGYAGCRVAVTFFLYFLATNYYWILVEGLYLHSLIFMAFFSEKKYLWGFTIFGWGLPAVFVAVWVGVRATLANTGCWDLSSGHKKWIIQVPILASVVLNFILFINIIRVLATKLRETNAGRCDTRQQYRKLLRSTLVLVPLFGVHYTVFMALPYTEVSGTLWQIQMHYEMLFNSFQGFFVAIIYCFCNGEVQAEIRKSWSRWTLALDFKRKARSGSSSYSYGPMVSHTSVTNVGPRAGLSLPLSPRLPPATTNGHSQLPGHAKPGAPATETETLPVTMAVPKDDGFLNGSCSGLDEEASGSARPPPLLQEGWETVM
Excerpt: FIG. 4. PTH Responses of Intact and Truncated PTH-1 Receptors in COS-7 Cells. Shown at the top are schematics of the intact (A) and truncated (B) rat PTH-1 receptors used for transient transfection of COS-7 cells, and subsequent cAMP response assays. The conserved extracellular cysteine residues are depicted as open circles and numbered according to sequence position, and the nine amino acids of the epitope tag (HA) in rWT-HA are shaded. The tics at residue 26 and 181 indicate the endpoints of the deletion in rΔNt. Based on the predicted signal peptide cleavage site at Ala-22, residues 23–25 in rΔNt are joined to residue 182. The cAMP responses of COS-7 cells expressing the intact receptor (C) and rΔNt (D) to rPTH(1–34) (J) or rPTH(1–14) (C) are also shown. The graphs show combined data (mean±s.e.m.) from five separate experiments, each performed in duplicate. […]
FIG. 6. Specificity of the Truncated Ligand and PTH Receptor. COS-7 cells transiently transfected with either rWT-HA (A), rΔNt (B), or the intact rat secretin receptor (C), were treated with the indicated peptides for 60 min at 22° C., and the resulting intracellular cAMP levels were quantified by RIA. Concentration of peptides present during the incubations were: rPTH(1–34), 0.1 mM; rPTH(1–14) 100 mM; secretin(1–27). […] Shown are data (mean±s.e.m.) from one experiment performed in duplicate, and this was repeated twice more with equivalent results.
For studies with the intact and truncated rat PTH-1 receptors, transient transfections of COS-7 cells were performed using DEAE-dextran as described previously (Bergwitz, C., et al., J. Biol. Chem. 272:28861–28868)). The construction and initial characterization of the pCDNA-1 based plasmids encodin either the intact or truncated rat PTH-1 receptor has been described previously (Lee, C., et al., Endocrinology 135(4):1488–1495)). […] The truncated rat PTH-1 receptor (rΔNt) is deleted for exons E1 through exon G (residues 26 to 181). Assuming that signal peptidase cleavage occurs between Ala-22 and Tyr-23 (Nielsen, H., et al., Protein Engineering 10:1–6 (1997)), rΔNt is predicted to have for its N-terminus residues Dautzenberg, F., et al., Proc. Natl. Acad. Sci. 95:4941–4946 (1998); Holtmann, M., et al., J. Biol. Chem. 270:14394–14398 (1995); DeAlmeida, V. and Mayo, K., Mol. Endo. 12:750–765 (1998)) joined to Glu-182 (FIG. 3B). COS-7 cells were transfected in 24-well plates when the cells were 85 to 95% of confluency, using 200 ng of plasmid DNA that was purified by cesium chloride/ethidium bromide gradient centrifugation for each well. Assays were conducted 72 to 96 hours after transfection. Under these conditions about ˜20% of the COS-7 cells become transfected and express about 5×10^6 surface PTH receptors per cell (Bergwitz, C., et al., J. Biol. Chem. 272:28861–28868)).
as §1
Experiments utilized COS-7 cells transfected with either the intact rat PTH-1 receptor (rWT-HA, FIG. 4A) or a truncated rat PTH-1 receptor with most of the amino-terminal extracellular domain deleted (rΔNt, FIG. 4B).

rat secretin receptor = biological target: T3, rat secretin receptor (Rattus norvegicus, UniProt P23811); test: cAMP response in COS-7 cells transfected with the rat secretin receptor; details: secretin(1–27) 1 mM; COS-7 cells transfected with the secretin receptor
T3 construct: expressed in transfected cells; host or cells: COS-7, transient
Procedure: FIG. 6. Specificity of the Truncated Ligand and PTH Receptor. COS-7 cells transiently transfected with either rWT-HA (A), rΔNt (B), or the intact rat secretin receptor (C), were treated with the indicated peptides for 60 min at 22° C., and the resulting intracellular cAMP levels were quantified by RIA. […] 1 mM and secretin(1–13), 100 mM. Shown are data (mean±s.e.m.) from one experiment performed in duplicate, and this was repeated twice more with equivalent results.
as §1
In order to test whether PTH(1–14) and rΔNt retained the appropriate recognition specificity for the corresponding parent ligand, cross-reactivity experiments were done using secretin ligands and the cloned rat secretin receptor. […] Cells expressing rΔNt responded to PTH(1–34) and PTH(1–14) but not to secretin(1–27) (1 mM) or secretin(1–13) ([…]) (FIG. 5B). Thus, the recognition specificity of PTH(1–14) and rΔNt appear to replicate that of the intact parent molecules. No evidence for relaxed specificity was detected in these studies (FIG. 6).

T3 sequence (P23811 26-449): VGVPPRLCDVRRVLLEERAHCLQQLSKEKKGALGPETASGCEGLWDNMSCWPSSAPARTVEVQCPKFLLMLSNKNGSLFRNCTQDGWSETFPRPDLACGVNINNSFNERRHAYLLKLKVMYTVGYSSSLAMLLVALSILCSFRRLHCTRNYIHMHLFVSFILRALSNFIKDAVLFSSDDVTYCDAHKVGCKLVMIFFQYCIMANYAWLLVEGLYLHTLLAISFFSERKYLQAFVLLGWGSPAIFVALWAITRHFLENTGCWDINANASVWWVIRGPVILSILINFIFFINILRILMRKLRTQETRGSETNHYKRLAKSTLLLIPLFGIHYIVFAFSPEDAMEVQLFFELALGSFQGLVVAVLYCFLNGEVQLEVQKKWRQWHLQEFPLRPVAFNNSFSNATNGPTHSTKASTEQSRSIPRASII

increase in cAMP accumulation (in words) (human PTH-1 receptor): little or no increase
Substance: PH(1–13): Amino-terminal peptide fragment based on the rat PTH sequence, residues 1–13, C-terminally amidated (AVSEIQLMHNLGK-NH2)

doses required for cAMP activation compared with the dose required for PTH(1–34) (human PTH-1 receptor): five to six orders of magnitude higher | increase in intracellular cAMP levels relative to the basal cAMP level (human PTH-1 receptor; 60 min at 22° C.): about 20 fold
Substance: PTH(1–15): Amino-terminal peptide fragment based on the rat PTH sequence, residues 1–15, C-terminally amidated (AVSEIQLMHNLGKHL-NH2)

Substance: secretin(1–13): truncated secretin ligand used in cross-reactivity experiments (HSDGTFTSELSRL; not fully specified (C-terminus); ends and bridges not checked; UniProt P09683 28-40, looked up, fragment)
cAMP response of cells expressing rΔNt (in words) [1]: not

Substance: secretin(1–27): secretin ligand used in cross-reactivity experiments
cAMP response of cells expressing rΔNt (in words) [1]: not | increase in cAMP levels (rat secretin receptor): 50 fold
